B1: Hairpin Ribozyme (parent)
chain: GUCCUCUUUCACGUGCGCGUGAAAGAGAGAAGUGAACCAGAGAAACACACGUUGUGGUAUAUUACCUGGUA

Variants of: B1
Experiment: self-cleavage, relative activity (ratio to wild type); higher = more cleavage; co-transcriptional

Variant	self-cleavage
GUCCUCUUUCACGUGCGCGUGAAAGAGAGAAGUGAACCAGAGAAACACACUCUGUGGUAUAUUACCUGGUA [G51U U52C]	1
GUCCUCUUUCACGUGCGCGUGAAAGAGAGAAGUGAACCAGAGAAACACAUGUUGUAGUAUAUUACCUGGUA [C50U G56A]	0.203
GUCCUCUUUCACGUGCGCGUGAAAGAGAGAAGUGAACCAGAGAAACACACCUUAUGGUAUAUUACCUGGUA [G51C G54A]	0.136
GUCCUCUUUCACGUGCGCGUGAAAGAGAGAAGUGAACCAGAGAAACACACAUUGUGGUAUAUUAUCUGGUA [G51A C65U]	0.151
GUCCUCUUUCACGUGCGCGUGAAAGAGAGAAGUGAACCAGAGAAACACACCUUGUUGUAUAUUACCUGGUA [G51C G56U]	0.147
GUCCUCUUUCACGUGCGCGUGAAAGAGAGAAGUGAACCAGAGAAACACACGAUGUGGUAUAUUAUCUGGUA [U52A C65U]	0.328
GUCCUCUUUCACGUGCGCGUGAAAGAGAGAAGUGAACCAGAGAAACACACCUUGUGGUAUAUUACGUGGUA [G51C C66G]	0.206
GUCCUCUUUCACGUGCGCGUGAAAGAGAGAAGUGAACCAGAGAAACACACAUUGUGGUAUAUUACCUGGGA [G51A U70G]	0.792
GUCCUCUUUCACGUGCGCGUGAAAGAGAGAAGUGAACCAGAGAAACACAUGUUGUGGUAUAUUACCUCGUA [C50U G68C]	0.246
GUCCUCUUUCACGUGCGCGUGAAAGAGAGAAGUGAACCAGAGAAACACACCUUGUGGAAUAUUACCUGGUA [G51C U58A]	0.653
GUCCUCUUUCACGUGCGCGUGAAAGAGAGAAGUGAACCAGAGAAACACACCUUGUGGUAUAUUACCUGGAA [G51C U70A]	0.898
GUCCUCUUUCACGUGCGCGUGAAAGAGAGAAGUGAACCAGAGAAACACACCUUGUGGUAUAUUACCUGGCA [G51C U70C]	1.01
GUCCUCUUUCACGUGCGCGUGAAAGAGAGAAGUGAACCAGAGAAACACAGGUUGUGGUAUAUUACCUGGAA [C50G U70A]	0.178
GUCCUCUUUCACGUGCGCGUGAAAGAGAGAAGUGAACCAGAGAAACACAUGUCGUGGUAUAUUACCUGGUA [C50U U53C]	0.261
GUCCUCUUUCACGUGCGCGUGAAAGAGAGAAGUGAACCAGAGAAACACAUGUGGUGGUAUAUUACCUGGUA [C50U U53G]	0.242
GUCCUCUUUCACGUGCGCGUGAAAGAGAGAAGUGAACCAGAGAAACACACUUUGUGCUAUAUUACCUGGUA [G51U G57C]	0.137
GUCCUCUUUCACGUGCGCGUGAAAGAGAGAAGUGAACCAGAGAAACACACUUUGUGUUAUAUUACCUGGUA [G51U G57U]	0.271
GUCCUCUUUCACGUGCGCGUGAAAGAGAGAAGUGAACCAGAGAAACACACCUUGUGGUAUAUAACCUGGUA [G51C U63A]	0.199
GUCCUCUUUCACGUGCGCGUGAAAGAGAGAAGUGAACCAGAGAAACACACCUUGUGGUAUAUGACCUGGUA [G51C U63G]	0.0973

Variant	self-cleavage
GUCCUCUUUCACGUGCGCGUGAAAGAGAGAAGUGAACCAGAGAAACACAUGUUAUGGUAUAUUACCUGGUA [C50U G54A]	0.864
GUCCUCUUUCACGUGCGCGUGAAAGAGAGAAGUGAACCAGAGAAACACACUUUUUGGUAUAUUACCUGGUA [G51U G54U]	0.508
GUCCUCUUUCACGUGCGCGUGAAAGAGAGAAGUGAACCAGAGAAACACACUUUAUGGUAUAUUACCUGGUA [G51U G54A]	0.72
GUCCUCUUUCACGUGCGCGUGAAAGAGAGAAGUGAACCAGAGAAACACACAAUGUGGUAUAUUACCUGGUA [G51A U52A]	1.15
GUCCUCUUUCACGUGCGCGUGAAAGAGAGAAGUGAACCAGAGAAACACACAUUGUGGUAUAGUACCUGGUA [G51A U62G]	0.262
GUCCUCUUUCACGUGCGCGUGAAAGAGAGAAGUGAACCAGAGAAACACACAUUGUGGUAUAUUGCCUGGUA [G51A A64G]	0.666
GUCCUCUUUCACGUGCGCGUGAAAGAGAGAAGUGAACCAGAGAAACACACCUCGUGGUAUAUUACCUGGUA [G51C U53C]	0.828
GUCCUCUUUCACGUGCGCGUGAAAGAGAGAAGUGAACCAGAGAAACACACCUGGUGGUAUAUUACCUGGUA [G51C U53G]	0.675
GUCCUCUUUCACGUGCGCGUGAAAGAGAGAAGUGAACCAGAGAAACACACUUGGUGGUAUAUUACCUGGUA [G51U U53G]	0.707
GUCCUCUUUCACGUGCGCGUGAAAGAGAGAAGUGAACCAGAGAAACACACUUUGUGGUAGAUUACCUGGUA [G51U U60G]	0.659
GUCCUCUUUCACGUGCGCGUGAAAGAGAGAAGUGAACCAGAGAAACACACUUUGUGGUACAUUACCUGGUA [G51U U60C]	1.49
GUCCUCUUUCACGUGCGCGUGAAAGAGAGAAGUGAACCAGAGAAACACACCUUGUGGUAUAAUACCUGGUA [G51C U62A]	0.141
GUCCUCUUUCACGUGCGCGUGAAAGAGAGAAGUGAACCAGAGAAACACACCUUGUGGUAUAGUACCUGGUA [G51C U62G]	0.184
GUCCUCUUUCACGUGCGCGUGAAAGAGAGAAGUGAACCAGAGAAACACAUGUUGUGGUAUAUUGCCUGGUA [C50U A64G]	0.216
GUCCUCUUUCACGUGCGCGUGAAAGAGAGAAGUGAACCAGAGAAACACACGAUGUGGUUUAUUACCUGGUA [U52A A59U]	0.243
GUCCUCUUUCACGUGCGCGUGAAAGAGAGAAGUGAACCAGAGAAACACACUUUGUGGUAUACUACCUGGUA [G51U U62C]	0.324
GUCCUCUUUCACGUGCGCGUGAAAGAGAGAAGUGAACCAGAGAAACACACUUUGUGGUAUAUUAACUGGUA [G51U C65A]	1.21
GUCCUCUUUCACGUGCGCGUGAAAGAGAGAAGUGAACCAGAGAAACACACUUUGUGGUAUAUUAUCUGGUA [G51U C65U]	0.284
GUCCUCUUUCACGUGCGCGUGAAAGAGAGAAGUGAACCAGAGAAACACACUUUGUGGAAUAUUACCUGGUA [G51U U58A]	0.439
